Assay results: the DeepSol protein solubility set

Assay: soluble on expression in E. coli; label from the status in PepcDB or PDB records

Sequence	soluble on expression in E. coli
MLSYRHSFHAGNHADVLKHTVQSLIIESLKEKDKPFLYLDTHAGAGRYQLGSEHAERTGEYLEGIARIWQQDDLPAELEAYINVVKHFNRSGQLRYYPGSPLIARQLLREQDSLQLTELHPSDYPLLRSGFQKDSRARVEKADGFQQLKAKLPPVSRRGLILIDPPYEMKTDYQAVVSGIAEGYKRFATGTYALWYPVVLRQQIKRMIHDLEATGIRKILQIELAVLPDSDRRGMTASGMIVINPPWKLEQQMNNVLSWLHSKLVPAGTGHATVSWIVPE	not soluble
MRAMNDRLPSFCTPLDDRWPLPVALPGVQLRSTRFDPALLQPGDFALAGIQPPANILRAVAKRQAEFLAGRLCARAALFALDGRAQTPAVGEDRAPVWPAAISGSITHGDRWAAALVAARGDWRGLGLDVETLLEAERARYLHGEILTEGERLRFADDLERRTGLLVTLAFSLKESLFKALYPLVGKRFYFEHAELLEWRADGQARLRLLTDLSPEWRHGSELDAQFAVLDGRLLSLVAVGA	not soluble
MSLNLTTTVLSLQLEQPFVSNKGSTTTVHQVVIKLTWQEYGGFGTVLCPKETQLSVEQIQQLIQACEPLLSTATPWQFELYQGQLASVVRNQAAMMAGIDMAWHDLLGKVVAQPIHALWGLAGLSIPPTALSLGAQSEQALVAQAAKLAAWPILKLKLTTDSNLDSLRQLREVYAGRIWVDGNGAWDVDQAIAAAQQCHTYGVELIEQPIPAGNLDQLRTIRQHSPIPIVADEDCRGLADVLRLHTCVDVINLKLFKCGGLRQARTMIDVAKQFGLKVMLGCKTESSLGISAIAQLAGLADYLDLDGHLDLVNDPFQGLVIEQGTLRLPQTPGLGLTIQGAIEEGHHHHHH	not soluble
MKKFIGSVLTTTLILGGCSAMENESNKDTNTETKSVPEEMEASKYVGQGFQPPAEKDAIEFAKKHRKEFEKVGEQFFKDNFGLKVKATNVVGKDDGVEVYVHCEDHGIVFNASLPLYKDAIHQKGSMRSNDNGDDMSMMVGTVLSGFEYRAQKEKYDNLYKFFKENEKKYQYTGFTKEAINKTQNVGYQNEYFYITYLSRNLKEYRKYYEPLIHKNDKEFKEGMQQARKELDYTANTDAVSTLFSTKKNFTKDNTVDDVIELSNKLKEKPNMPQKSQVTIQLGKSSINTKKPFYDDINPIEGLEHHHHHH	not soluble
MGSDKIHHHHHHMKVLEGIRVLDFGRFIAGPFCAALLADFGADVIRIDRVGGSEDRFVAPVTSEGEGAFFLQVNRNKRSITLDLDSEEGQAVVRKLLLNTDVVVANMPPRTIAALGLDYESLRKVKPDIILTASSAFGADPAVRDRVGFDGVGQAMSGAVHLTGLPDHPMKSMVPVVDFSTALCCALGTMMALYERKSSGQGQEVGASLLHTALTLSSGSLIEEALRGLNRQATVNRSPTYGPSDIFRVKDGWIIAQVIGPAMFKRWTRMVGRPELLDDPRFADDAMRGEHGEVLSDIMSDWCAGRTREEALAILEGARIPGGPVNTPRQALEDEVVRASGAFHGVDYPGAAAQVPLVATPVSLSRTAPAIARRPPTAGEHTEEVLRDAGYAPGEIVALRERGVI	not soluble
LPAFFKTFDRQEDFMVDVFRLNIDALKENYLPLARFFENLNENTGNESSVILETSKSGMPNFRVKKGEHTFFVHSPYDPRTEAIRWAEKIDLKGFDTIAVLGIGCGYHIEELEKKYPDKNKIVIEPDRNVFLKLLNTRDITHLISSKNILFIISDNTEEIAKVFLLLREEGEIDSVEFNELLSYRKVYEDWWLELKKEYIKFARLHQINTNTSVFFAEAWLTNLFEGMWQLTKSVHIKEYKSAFANIPAIVVSAGPALNKNVHLLKELYNKAVIISAGSALNILESRGITPHIMVGVDGGEAESRIFNNVKSNEIYFAYSLSVHYDGLKNYSGPKIYFKTNVLGYGDWIDEKLGIEGAENLRSGSSVSNLSLDIARYMGCNPIIVIGQNLSFPNLESYADGAVLKQEQDRHIQQCVENSNKYYVLEKDIDGNDVYTTHSMLSIRFYFEEYIKNHPDRLYLNGSEEGLPIKGMKNMPLKEIVEKYCTKEYDIKGILDKKFKEEFEAENVKAKEIKIRRILEDIHKESTEIRQKAIKRIDLILDILSNIRGSHNDKWEEIDRLTDEIESSDLYKYFVEPLSKYFIQAVKNERERKMESIPDIQERLKYLYEGLLIQYVEVKDKIVLIDDLSQKIIENIDKKEATKCLSMV	soluble
MGSDKIHHHHHHLSNYINDLRQKVGNAPLILNTATGALFNNAGEVLLQERVDTKDWGFPGGYLEYGETYKKAIMREFQEDTGLSVIPEKLIQNTDDTFYKYPNGDQIQSINQFFLVRYLEGTLLSVKTGETTRLKYFKLDQPPQFFNEQHAEMFKKIQRMRE	not soluble
PPRKKVATGRRDITKKSEGKPHPTQTYEHELLATQLSNKKMMPFKSQIRARSFDEYKDWVCHDGEEFLLILSGEVMFYSEFYEPVVLSEGDSVYYDANMGHMLTSVSEEDAQILWVTAK	not soluble
MSQATQQLDETRLALADALQAGNWDAIGELDQVCQVKIDQAMHDDERDEQALRVSLEQLLSLYNDMLSACRQQREAIGAELTGLQRASKGAKVYQMFG	not soluble
MGSDKIHHHHHHMLKVRHLEIFRAVVKAGSVSAAARLLYVSQPAVTKTLRMLEEEIGLTLFLRVKGRLVCTPEAESILPEIERLFGSVQSIAETAREIRQGQRGSIRVSTVSMLATTIVARAVGEFRKTHPYVEFDVRALPTRHVVEYVNNNQADFGILDVAAPSGTLEVEEFCSADLRCVMRAAHPLASRKTITPRLLDNEALATFGEDTLTGWRLREAFRAQGRPFTSVFVSNSTPVLCALVREADAVALVDPFALMSRSFPDLVSRRFSPSVPVQPRFLFAPGRPRSVIVDQFVSQLRKTAGEMAMG	not soluble
APVGPLGQVKLTVWYHSDEQKLISIIHSCRALRQNGRDLPDPYVSVLLLPDKNRSTKRKTPQKKRTLNPEFNERFEWDLPLDGTLRRKLDVSVKSNSSFMSRERELLGKVQLDLAEIDLSQGAAQWYDLMDDRDKGGS	soluble
MADPNWAYAPPTNYYADHSIAKPIMISGGHPSQDQGHSPKSESFGQSVTTAFNGMVDNLVGSPSSSVQQRNYFTTTPFPISRSPNDRNDDKIMGNGSYGVPIPIPQDGVPQGTPDFQMTPFLQQGGHLIGGSPNGPVQVSGNWYSGGAGIFSTMQQADPSNGMPGMAAEFVNNENGMPGPNGMHQQAMISGSPPFPYQNMMNLTTSFGAMGLGPQQIQQRDPQMFQQPILHEPIQGMAQNGFGQQVFFTQMQNQQHPQGQAQQQLQQLAQQHQQQQNSQQFFGQGPNGMGNGGVMNDWSQRSFGMPQQQAQQNGLPPNFSQNPPRRRGPEDPNGQTPKTLQDIKNNVIEFAKDQHGSRFIQQKLERASLRDKAAIFTPVLENAEELMTDVFGNYVIQKFFEFGNNEQRNQLVGTIRGNVMKLALQMYGCRVIQKALEYVEEKYQHEILGEMEGQVLKCVKDQNGNHVIQKVIERVEPERLQFIIDAFTKNNSDNVYTLSVHPYGCRVIQRVLEYCNEEQKQPVLDALQIHLKQLVLDQYGNYVIQHVIEHGSPSDKEQIVQDVISDDLLKFAQHKFASNVIEKCLTFGGHAERNLIIDKVCGDPNDPSPPLLQMMKDPFANYVVQKMLDVADPQHRKKITLTIKPHIATLRKYNFGKHILLKLEKYFAKQAPANSSNSSSNDQIYEHSPFDIPLGADFSNHPF	not soluble
MMEIRLTELKDLPLVMEIYDYARAFMRANGNATQWIDGYPSESFIRQEIEDGHSFVCTDEQGEILGTFCFILGEDPTYLNIYEGAWLNDEPYGVIHRMATSGKRKGVSEACLNWCFEHFENIRVDTHRDNKVMQHILAKYGFQRCGIIYVKNGTERIAYQRIL	not soluble
GMEQQHPTIHTLKIETEFFKAVKERRKTFEIRKNDRNFQVGDILILEEYMNGMYLDDECEAEVIYITDYAQREGYVVLGIELH	soluble
MGGSVAAQDEFYRSGWALNMKELKLLQTIGKGEFGDVMLGDYRGNKVAVKCIKNDATAQAFLAEASVMTQLRHSNLVQLLGVIVEEKGGLYIVTEYMAKGSLVDYLRSRGRSVLGGDCLLKFSLDVCEAMEYLEGNNFVHRDLAARNVLVSEDNVAKVSDFGLTKEASSTQDTGKLPVKWTAPEALREKKFSTKSDVWSFGILLWEIYSFGRVPYPRIPLKDVVPRVEKGYKMDAPDGCPPAVYEVMKNCWHLDAAMRPSFLQLREQLEHIKTHELHL	soluble
MSHAHKKHKENAPKSLNFYVITISTSRYEKLLKKEPIVDESGDIIKQLLIENGHKIIGYSLVPDDKIKILKAFTDALSIDEVDVIISTGGTGYSPTDITVETIRKLFDREIEGFSDVFRLVSFNDPEVKAAAYLTKASAGIIGKKIVYLLPGSPDAVKLALKELILPEVGHLVYLVRS	soluble
MKKTYVLDTNVLLQDPHAIFAFQDNEVVIPAVVLEEVDSKKRYMDEIGRNARHFSKLIDQLRGLGKLHEGVPLENGGKLRIELNHKSYEKVKDSFAEMTNDNRIIAVALNLSLEETEKPNGNQVILVSKDALVRVKADALRLKAEDFLNDRVIQYDRGY	not soluble
MDKAIIDIYYCRQCNWMLRSTWLSQELLHTFSEEIDTISLHPDTGGRFEIFCNGQQIWERKKDGGFPEAKVLKQRVRDIIDPERDLGHSDTKLEHHHHHH	soluble
MGALLKGRIYTMSVKTLKRTITAVAILAASVMSSSAWSNDLKEIRERGVLRHIGVPYANFVSYIEQGEMHTLTGLDVDIVKGFASSLGVRYEYVPAQWSDMVGKLTGQDVQYRHNRAVVGGSVPIEGDLIANGVTILDWREEVLDFSQDYFPSAVWLVSRTDSSLSPIKPSGSIDEDVKTVKELIDGREVLALEHSCLDPNLYDLYDTGAKVILPDGKRLLNEMVPAIMKNDAESTLLDVADTLIALEKWPG	not soluble
GPLGSTSLVQGLTPPPDFNQCLKNSPDEKFFSDFSNNMGSRKNPDPLATEEVPNQEQIPEEGFIHTQYGQKPEQPSGASAGHRFPQGYHSDKRRLSKASSKARSDDLSV	soluble
MYSKIIERELETLKTIFQEASRANTHYEFISVVGKAVSEFLGSEGYRIEWDGRGSAKGNEVVLEIRINTYAKVNLYFPLKKGRKLSKVEEEFLKFVKEVSERIAEKITSYTIYKTLLDSYPFVAYLVEAEPPYPQKILYVTPSLEKWLGWKPEEISKDW	not soluble
GSHMRLGAQSIQPTANLDRTDDLVYLNVMELVRAVLELKNELAQLPPEGYVVVVKNVGLTLRKLIGSVDDLLPSLPSSSRTEIEGTQKLLNKDLAELINKMRLAQQNAVTSLSEECKRQMLTASHTLAVDAKNLLDAVDQAKVLANLAHPPAE	soluble
MAHHHHHHMVNFILNEAKDKAHEIEAKALEDFNIEKLRIVQKMKEKIRVEFQKKAKQMEIKRSIARSSAINKARLKKMCAKDQVFKEIYKISSDKLNDLYKDKDKYKNLIVDLIVQSLFYMQEPHVIVRCRDIDKAVVESSLNEAVSKYTDKLKKQFNVTKTVKIELDKSGNYLPPPPTPENEGNSCLGGVILTTPNRKINCDNTLDVRLKLAIEYCTPEIKRMFFENA	not soluble
MGSDKIHHHHHHMDDTDWIGETFTSTVGWDHLETLVDIGNRMAGSGGERAAAEATRDALAEYTRDARLSEFGIQGWERGDSAVHAGGSPVATQAHECIALPRSPAGEVTGELVDVGHGLPEDFEDADCEGQIVLARSDVPDWYDRYIHRREKYYHAVEAGAAGFIYRNHVDGVLPPTGSVGTADAPIGEIPAIGVASETGARLARRYAGENVTLSVDCETPKATSQNVHAELGPDTDERLLVTSHADAHDIAEGAMDNGAGTAMVVEVARALAGREDELATRVEFVAFGAEEVGLVGSNRLAGETTLDDVTAVLNFDGVVQGRTLKCYTHGFDALTAAAEDVADRLDHPISLTPEQGPHSDHWPFVQRGVPGYHVTSETGGEGRGWGHTHADTLDKLEPRTFREQAVLLTELAVALADDSARPAHKDPAEIANALEAQNLAEGMRITGDWPFGD	not soluble
